The results in this text go back to patent publication US12649925B2, “Tissue-specific expression and hybrid plant production” (Dow AgroSciences LLC, priority 2013, dated 2026).

The test system of data set [1] is Maize Immature Embryos. The experiment in a line: Transient AAD1 expression in immature embryos after particle bombardment, ELISA. It is filed as cell-based, Zea mays. Particulars: 24 hours after particle bombardment; co-bombardment plasmid pDAB112378 (artificial miRNA). The text has this: Zea mays embryos from inbred line B104 that express AAD1 mRNAs having miRNA target sites within the mRNA were produced. Control tissues having no miRNA target sites in the AAD1 mRNA, or having no AAD1 gene expression cassette, were also produced. Other control tissues were produced that had only a YFP gene expression cassette (and no AAD1 construct). Preparations of plant transformation DNA molecules constructed as described in EXAMPLE 2 were delivered into maize B104 immature embryos via particle bombardment transformation.
Plasmid DNAs of pDAB112375, pDAB112376, pDAB112377, pDAB113016, pDAB100286, pDAB112378 and pDAB112330 were isolated and purified from Escherichia coli by standard techniques, and diluted in TE buffer (10 mM Tris HCl plus 1 mM EDTA, pH 8) to 1.0 μg/μL.
Embryo isolation and culture: (Day 1) Surface-sterilized B104 immature ears (10 to 12 days post-pollination) were used for the isolation of embryos. Excised immature embryos from 3 to 4 ears were pooled into 2 mL microfuge tubes containing 2.0 mL liquid medium (LS basal medium (Linsmaier and Skoog, (1965) Physiologia Plantarum 18:100-27) containing CHU N6 vitamins (Chu et al. (1975) Scientia Sinica 18:659-68), 700 mg/L L-Proline, 68.5 gm/L sucrose, 36 gm/L D(+) glucose, and 1.5 mg/L 2,4-D). After embryo isolation, the liquid medium was removed and discarded. Embryos were removed and placed onto plates (40 embryos per plate) containing a semi-solid osmotic medium (MS basal medium (Murashige and Skoog, (1962) Physiologia Plantarum 15:473-497), 2 mg/L Glycine, 500 μg/L Thiamine, 500 μg/L Pyroxidine, 50 μg/L Nicotinic Acid., 120 gm/L sucrose, 100 mg/L myo-inositol, and 2.4 gm/L GELRITE). The embryos were arranged in a […] within the target area for particle bombardment. Three replicate plates were prepared for each construct to be tested. All plates were incubated at 28° C. under continuous low light (50 μEm^−2 sec^−1) for 24 hours prior to particle bombardment.
Coating gold particles with DNA: (Day 2) Tubes of frozen gold particles glycerol stock were thawed on ice for a few minutes, then vortexed for 2 minutes at high speed until a uniform gold suspension was produced. Gold suspension was pipetted into sterile microcentrifuge tubes (50 μL each), with an intermediate vortexing of the particle stock between each tube to maintain a uniform suspension. 2.5 μg each of appropriate plasmid DNAs were included. […]
ELISA quantification of AAD1 and PAT proteins: Enzyme Linked Immunosorbant Assays (ELISAs) were used to measure the production of AAD1 and PAT proteins in maize cells and stably-transformed tissues. […]
(In an ELISA, binding on a coated surface is turned into a signal by an enzyme label.)

Data set [2] deals with Maize Immature Embryos. The experiment in a line: Selection of Agrobacterium-transformed immature embryos on herbicide-containing medium. Particulars: Selection Medium I containing 100 nM R-Haloxyfop acid. It is filed as cell-based, Zea mays. The text has this: Agrobacterium-mediated transformation was used to stably integrate a chimeric gene into the plant genome, and thus generate transgenic maize cells, tissues, and plants that produce AAD1 mRNAs having miRNA target sites within the mRNA. Control tissues having no miRNA target sites in the AAD1 mRNA were also produced. Transformed tissues were selected by their ability to grow on Haloxyfop-or Bialaphos-containing medium.
Callus Selection and Regeneration of Transgenic Events: Following the co-cultivation period, embryos were transferred to Resting Medium (4.33 g/L MS salts; 1× ISU Modified MS Vitamins; 30 g/L sucrose; 700 mg/L L-proline; 3.3 mg/L Dicamba in KOH; 100 mg/L myo-inositol; 100 mg/L Casein Enzymatic Hydrolysate; 15 mg/L AgNO3; 0.5 g/L MES (2-(N-morpholino) ethanesulfonic acid monohydrate; PHYTOTECHNOLOGIES LABR.; Lenexa, K S); 250 mg/L Cefotaxime; and 7.0 gm/L agar; at pH 5.8). No more than 36 embryos were moved to each plate. The plates were wrapped with Micropore™ tape and incubated at 27° C. with continuous light at approximately 50 μmol m^−2s^−1 light intensity for 7 to 10 days. […]

B1: pDAB112377: Transient construct: ZmUbilv2/AAD1 v3/miR529 perfect target site with miR156 site mutated/ZmPer5 3′UTR (SEQ ID NO:10) (nucleic acid)
DNA: ATGGCTCATGCTGCCCTCAGCCCTCTCTCCCAACGCTTTGAGAGAATAGCTGTCCAGCCACTCACTGGTGTCCTTGGTGCTGAGATCACTGGAGTGGACTTGAGGGAACCACTTGATGACAGCACCTGGAATGAGATATTGGATGCCTTCCACACTTACCAAGTCATCTACTTTCCTGGCCAAGCAATCACCAATGAGCAGCACATTGCATTCTCAAGAAGGTTTGGACCAGTTGATCCAGTGCCTCTTCTCAAGAGCATTGAAGGCTATCCAGAGGTTCAGATGATCCGCAGAGAAGCCAATGAGTCTGGAAGGGTGATTGGTGATGACTGGCACACAGACTCCACTTTCCTTGATGCACCTCCAGCTGCTGTTGTGATGAGGGCCATAGATGTTCCTGAGCATGGCGGAGACACTGGGTTCCTTTCAATGTACACAGCTTGGGAGACCTTGTCTCCAACCATGCAAGCCACCATCGAAGGGCTCAACGTTGTGCACTCTGCCACACGTGTGTTCGGTTCCCTCTACCAAGCACAGAACCGTCGCTTCAGCAACACCTCAGTCAAGGTGATGGATGTTGATGCTGGTGACAGAGAGACAGTCCATCCCTTGGTTGTGACTCATCCTGGCTCTGGAAGGAAAGGCCTTTATGTGAATCAAGTCTACTGTCAGAGAATTGAGGGCATGACAGATGCAGAATCAAAGCCATTGCTTCAGTTCCTCTATGAGCATGCCACCAGATTTGACTTCACTTGCCGTGTGAGGTGGAAGAAAGACCAAGTCCTTGTCTGGGACAACTTGTGCACCATGCACCGTGCTGTTCCTGACTATGCTGGCAAGTTCAGATACTTGACTCGCACCACAGTTGGTGGAGTTAGGCCTGCCCGCTGAGTAGTTAGCTTAATCACCTAGAGCTCGACTCAGGCTGTACTCTCTCTCTTCACAAAGTACTCAGGTAACCTTTAAACTGAGGGCACTGAAGTCGCTTGATGTGCTGAATTGTTTGTGATGTTGGTGGCGTATTTTGTTTAAATAAGTAAGCATGGCTGTGATTTTATCATATGATCGATCTTTGGGGTTTTATTTAACACATTGTAAAATGTGTATCTATTAATAACTCAATGTATAAGATGTGTTCATTCTTCGGTTGCCATAGATCTGCTTATTTGACCTGTGATGTTTTGACTCCAAAAACCAAAATCACAACTCAATAAACTCATGGAATATGTCCACCTGTTTCTTGAAGAGTTCATCTACCATTCCAGTTGGCATTTATCAGTGTTGCAGCGGCGCTGTGCTTTGTAACATAACAATTGTTACGGCATATATCCAA
modifications: expression cassette; (969)..(1333) ZmPer5 3′UTR
With B1, the “Mean AAD1 Amount” value in data set [1] was 249 ng/mL. For the same molecule, the “fate of transformed embryos on Haloxyfop-containing medium” value in data set [2] was “grew on Haloxyfop-containing medium and regenerated transgenic plants”.
